In ChEMBL document CHEMBL3864159, “Variation of the aryl substituent on the piperazine ring within the 4-(piperazin-1-yl)-2,6-di(pyrrolidin-1-yl)pyrimidine scaffold unveils potent, non-competitive inhibitors of the inflammatory caspases” (Bioorg Med Chem Lett, 2016):

Key:
[1] = compound: c1ccc(CCN2CCN(c3cc(N4CCCC4)nc(N4CCCC4)n3)CC2)cc1; assay: (§1) Non-competitive inhibition of human recombinant N-terminal His-tagged DTT-activated caspase-1 expressed in Escherichia coli assessed as enzyme Vmax at 500 nM using Ac-WEHD-AMC as substrate preincubated for 30 mins followed by substrate addition by Michaelis-Menten plot analysis (reference value: 13162 +/- 1446 RFU/min)
[2] = compound: c1ccc(CCN2CCN(c3cc(N4CCCC4)nc(N4CCCC4)n3)CC2)cc1; assay: as §1, with “Km” for “Vmax”, “8.18” for “13162”, “2.9 uM)” for “1446 RFU/min)”
[3] = compound: c1ccc(CCN2CCN(c3cc(N4CCCC4)nc(N4CCCC4)n3)CC2)cc1; assay: as §1, with “50” for “500”
[4] = compound: c1ccc(CCN2CCN(c3cc(N4CCCC4)nc(N4CCCC4)n3)CC2)cc1; assay: as §1, with “Km” for “Vmax”, “50” for “500”, “8.18” for “13162”, “2.9 uM)” for “1446 RFU/min)”

B1: Caspase-1 (Homo sapiens), P29466 (protein)
chain: MADKVLKEKRKLFIRSMGEGTINGLLDELLQTRVLNKEEMEKVKRENATVMDKTRALIDSVIPKGAQACQICITYICEEDSYLAGTLGLSADQTSGNYLNMQDSQGVLSSFPAPQAVQDNPAMPTSSGSEGNVKLCSLEEAQRIWKQKSAEIYPIMDKSSRTRLALIICNEEFDSIPRRTGAEVDITGMTMLLQNLGYSVDVKKNLTASDMTTELEAFAHRPEHKTSDSTFLVFMSHGIREGICGKKHSEQVPDILQLNAIFNMLNTKNCPSLKDKPKVIIIQACRGDSPGVVWFKDSVGVSGNLSLPTTEEFEDDAIKKAHIEKDFIAFCSSTPDNVSWRHPTMGSVFIGRLIEHMQEYACSCDVEEIFRKVRFSFEQPDGRAQMPTTERVTLTRCFYLFPGH
**Q.** With B1 as the protein, how does the Vmax [1] read?
**A.** 2840 RFU/min

**Q.** What about the Km [2] of the same protein?
**A.** 5.75 µM

**Q.** What about the Vmax [3] of the same protein?
**A.** 4440 RFU/min

**Q.** And the Km [4]?
**A.** 5.76 µM
